Assay results published in article PMC4972137 (The EMBO Journal, 2016).
Changes are numbered by the printed parent chain. Numbers in names are those of the source.

B1: NavMs sodium channel pore protein (wild-type pore of NavMs from M. marinus MC-1 with its complete C-terminal domain) (domain or fragment, Magnetococcus marinus MC-1)
chain: GVGSVAALLTVVFYIAAVMATNLYGATFPEWFGDLSKSLYTLFQVMTLESWSMGIVRPVMNVHPNAWVFFIPFIMLTTFTVLNLFIGIIVDAMAITKEQEEEAKTGHHQEPISQTLLHLGDRLDRIEKQLAQNNELLQRQQPQKK
B2: NavMs sodium channel pore protein, E178D selectivity filter mutant (domain or fragment, Magnetococcus marinus MC-1)
chain: B1 chain with E49D

Target: the molecule itself
Experiment: crystal structure; NavMs pore crystals grown in the presence of sodium ions; open conformation; four identical chains arranged in two half-tetramers, with the tetramers completed by crystal symmetry

Row | Protein | stoichiometry N
1 | B1 | 4
2 | B2 | 4
